{"source": "paper PMC5122715", "about": "“A Novel, Molybdenum-Containing Methionine Sulfoxide Reductase Supports Survival of Haemophilus influenzae in an In vivo Model of Infection” (Frontiers in Microbiology, 2016)", "assay_in_all_cases": "purified protein", "key": {"[1]": {"system": "O=C(O)CCCC[C@H]1[C@H]2NC(=O)N[C@H]2C[S@+]1[O-]", "details": "0.2 mM benzyl viologen, 0.3 mM dithionite, 20 mM sodium phosphate pH 6.8, 37°C"}, "C[S+](C)[O-]": {"system": "C[S+](C)[O-]", "details": "0.2 mM benzyl viologen, 0.3 mM dithionite, 20 mM sodium phosphate pH 6.8, 37°C"}, "C[S+]([O-])CCC(N)C(=O)O": {"system": "C[S+]([O-])CCC(N)C(=O)O", "details": "0.2 mM benzyl viologen, 0.3 mM dithionite, 20 mM sodium phosphate pH 6.8, 37°C, concentration of the whole racemic mixture"}, "C[N+](C)(C)[O-]": {"system": "C[N+](C)(C)[O-]", "details": "0.2 mM benzyl viologen, 0.3 mM dithionite, 20 mM sodium phosphate pH 6.8, 37°C"}}}
{"substance": "HI rTorZ (TorZ/MtsZ) (Haemophilus influenzae Rd KW20)", "values": [{"measurement": "Km", "setting": "[1]", "result": "1520 ± 280", "unit": "µM"}, {"measurement": "kcat", "setting": "[1]", "result": "183 ± 10.9", "unit": "s⁻¹"}, {"measurement": "kcat/Km", "setting": "[1]", "result": 120000, "unit": "M⁻¹ s⁻¹"}, {"measurement": "Km", "setting": "C[S+](C)[O-]", "result": "140 ± 50", "unit": "µM"}, {"measurement": "kcat", "setting": "C[S+](C)[O-]", "result": "85.4 ± 9.1", "unit": "s⁻¹"}, {"measurement": "kcat/Km", "setting": "C[S+](C)[O-]", "result": 650000, "unit": "M⁻¹ s⁻¹"}, {"measurement": "Km", "setting": "C[S+]([O-])CCC(N)C(=O)O", "result": "410 ± 80", "unit": "µM"}, {"measurement": "kcat", "setting": "C[S+]([O-])CCC(N)C(=O)O", "result": "91.7 ± 4.4", "unit": "s⁻¹"}, {"measurement": "kcat/Km", "setting": "C[S+]([O-])CCC(N)C(=O)O", "result": 224000, "unit": "M⁻¹ s⁻¹"}, {"measurement": "Km", "setting": "C[N+](C)(C)[O-]", "result": "6700 ± 2000", "unit": "µM"}, {"measurement": "kcat", "setting": "C[N+](C)(C)[O-]", "result": "435 ± 52.1", "unit": "s⁻¹"}, {"measurement": "kcat/Km", "setting": "C[N+](C)(C)[O-]", "result": 64900, "unit": "M⁻¹ s⁻¹"}]}
